Measured values: the Human Domainome abundance scans (Beltran et al. 2025)
± gives the uncertainty stated by the source.

B1: Ankyrin repeat and SAM domain-containing protein 6, residues 774 to 836; numbered along this chain, Q68DC2 (parent)
chain: DEDELTGILKKLSLEKYQPIFEEQEVDMEAFLTLTDGDLKELGIKTDGSRQQILAAISELNAG

Variants of: B1
Test: abundance fitness (aPCA) (normalised: wild type 0, dead -1); higher = more abundant; growth selection in yeast, the domain comes from the species named
Conditions: Homo sapiens

Row | Variant | abundance fitness
1 | DEDELTGILKKLSLEKYQPIFEEQEVDMEAFLTTTDGDLKELGIKTDGSRQQILAAISELNAG | -0.556 ± 0.073
2 | DEDELTGILKKLSLEKYQPIFEEQEVDMEAFLTYTDGDLKELGIKTDGSRQQILAAISELNAG | -0.095 ± 0.12
3 | DEDELTGILKKLSLEKYQPIFEEQEVDMEAFLTNTDGDLKELGIKTDGSRQQILAAISELNAG | -0.483 ± 0.15
4 | DEDELTGILKKLSLEKYQPIFEEQEVDMEAFLTPTDGDLKELGIKTDGSRQQILAAISELNAG | -0.561 ± 0.078
5 | DEDELTGILKKLSLEKYQPIFEEQEVDMEAFLTRTDGDLKELGIKTDGSRQQILAAISELNAG | -0.523 ± 0.051
6 | DEDELTGILKKLSLEKYQPIFEEQEVDMEAFLTHTDGDLKELGIKTDGSRQQILAAISELNAG | -0.356 ± 0.086
7 | DEDELTGILKKLSLEKYQPIFEEQEVDMEAFLTMTDGDLKELGIKTDGSRQQILAAISELNAG | 0.038 ± 0.083
8 | DEDELTGILKKLSLEKYQPIFEEQEVDMEAFLTSTDGDLKELGIKTDGSRQQILAAISELNAG | -0.457 ± 0.057
9 | DEDELTGILKKLSLEKYQPIFEEQEVDMEAFLTWTDGDLKELGIKTDGSRQQILAAISELNAG | -0.657 ± 0.039
10 | DEDELTGILKKLSLEKYQPIFEEQEVDMEAFLTVTDGDLKELGIKTDGSRQQILAAISELNAG | -0.345 ± 0.065
11 | DEDELTGILKKLSLEKYQPIFEEQEVDMEAFLTGTDGDLKELGIKTDGSRQQILAAISELNAG | -0.551 ± 0.052
12 | DEDELTGILKKLSLEKYQPIFEEQEVDMEAFLTITDGDLKELGIKTDGSRQQILAAISELNAG | -0.627 ± 0.2
13 | DEDELTGILKKLSLEKYQPIFEEQEVDMEAFLTKTDGDLKELGIKTDGSRQQILAAISELNAG | -0.309 ± 0.064
14 | DEDELTGILKKLSLEKYQPIFEEQEVDMEAFLTLTFGDLKELGIKTDGSRQQILAAISELNAG | -1.02 ± 0.092
15 | DEDELTGILKKLSLEKYQPIFEEQEVDMEAFLTLTIGDLKELGIKTDGSRQQILAAISELNAG | -0.642 ± 0.086
16 | DEDELTGILKKLSLEKYQPIFEEQEVDMEAFLTLTSGDLKELGIKTDGSRQQILAAISELNAG | -0.392 ± 0.044
17 | DEDELTGILKKLSLEKYQPIFEEQEVDMEAFLTLTCGDLKELGIKTDGSRQQILAAISELNAG | -0.487 ± 0.082
18 | DEDELTGILKKLSLEKYQPIFEEQEVDMEAFLTLTHGDLKELGIKTDGSRQQILAAISELNAG | -0.584 ± 0.078
19 | DEDELTGILKKLSLEKYQPIFEEQEVDMEAFLTLTTGDLKELGIKTDGSRQQILAAISELNAG | -0.532 ± 0.054
20 | DEDELTGILKKLSLEKYQPIFEEQEVDMEAFLTLTQGDLKELGIKTDGSRQQILAAISELNAG | -0.565 ± 0.072
21 | DEDELTGILKKLSLEKYQPIFEEQEVDMEAFLTLTMGDLKELGIKTDGSRQQILAAISELNAG | -0.441 ± 0.046
22 | DEDELTGILKKLSLEKYQPIFEEQEVDMEAFLTLTGGDLKELGIKTDGSRQQILAAISELNAG | -0.405 ± 0.066

Row | Variant | abundance fitness
23 | DEDELTGILKKLSLEKYQPIFEEQEVDMEAFLTLTNGDLKELGIKTDGSRQQILAAISELNAG | -0.252 ± 0.084
24 | DEDELTGILKKLSLEKYQPIFEEQEVDMEAFLTLTEGDLKELGIKTDGSRQQILAAISELNAG | -0.051 ± 0.069
25 | DEDELTGILKKLSLEKYQPIFEEQEVDMEAFLTLTLGDLKELGIKTDGSRQQILAAISELNAG | -0.702 ± 0.046
26 | DEDELTGILKKLSLEKYQPIFEEQEVDMEAFLTLTKGDLKELGIKTDGSRQQILAAISELNAG | -0.449 ± 0.06
27 | DEDELTGILKKLSLEKYQPIFEEQEVDMEAFLTLTRGDLKELGIKTDGSRQQILAAISELNAG | -0.72 ± 0.05
28 | DEDELTGILKKLSLEKYQPIFEEQEVDMEAFLTLHDGDLKELGIKTDGSRQQILAAISELNAG | -0.302 ± 0.082
29 | DEDELTGILKKLSLEKYQPIFEEQEVDMEAFLTLQDGDLKELGIKTDGSRQQILAAISELNAG | -0.026 ± 0.056
30 | DEDELTGILKKLSLEKYQPIFEEQEVDMEAFLTLDDGDLKELGIKTDGSRQQILAAISELNAG | 0.037 ± 0.091
31 | DEDELTGILKKLSLEKYQPIFEEQEVDMEAFLTLSDGDLKELGIKTDGSRQQILAAISELNAG | 0.037 ± 0.06
32 | DEDELTGILKKLSLEKYQPIFEEQEVDMEAFLTLNDGDLKELGIKTDGSRQQILAAISELNAG | -0.078 ± 0.064
33 | DEDELTGILKKLSLEKYQPIFEEQEVDMEAFLTLEDGDLKELGIKTDGSRQQILAAISELNAG | -0.067 ± 0.048
34 | DEDELTGILKKLSLEKYQPIFEEQEVDMEAFLTLFDGDLKELGIKTDGSRQQILAAISELNAG | -0.779 ± 0.26
35 | DEDELTGILKKLSLEKYQPIFEEQEVDMEAFLTLGDGDLKELGIKTDGSRQQILAAISELNAG | -0.199 ± 0.05
36 | DEDELTGILKKLSLEKYQPIFEEQEVDMEAFLTLMDGDLKELGIKTDGSRQQILAAISELNAG | -0.65 ± 0.074
37 | DEDELTGILKKLSLEKYQPIFEEQEVDMEAFLTLADGDLKELGIKTDGSRQQILAAISELNAG | -0.377 ± 0.045
38 | DEDELTGILKKLSLEKYQPIFEEQEVDMEAFLTLLDGDLKELGIKTDGSRQQILAAISELNAG | -0.932 ± 0.053
39 | DEDELTGILKKLSLEKYQPIFEEQEVDMEAFLTLRDGDLKELGIKTDGSRQQILAAISELNAG | -0.057 ± 0.041
40 | DEDELTGILKKLSLEKYQPIFEEQEVDMEAFLTLCDGDLKELGIKTDGSRQQILAAISELNAG | -0.363 ± 0.085
41 | DEDELTGILKKLSLEKYQPIFEEQEVDMEAFLTLVDGDLKELGIKTDGSRQQILAAISELNAG | -0.687 ± 0.045
42 | DEDELTGILKKLSLEKYQPIFEEQEVDMEAFLTLIDGDLKELGIKTDGSRQQILAAISELNAG | -0.695 ± 0.11
43 | DEDELTGILKKLSLEKYQPIFEEQEVDMEAFLTLWDGDLKELGIKTDGSRQQILAAISELNAG | -0.879 ± 0.099
